Reference: publication PMC12371199, “Identification of c‐Met on Tumor Cells as a Novel Receptor for B7‐H3 Entails Implications for Cancer Cell Stemness and Targeted Therapy” (MedComm, 2025)

How the values were obtained:
[1] = biological target: T1, purified recombinant extracellular domain of c‐Met (from Met1 to Thr932), c‐Met‐his (human, UniProt P08581 25-932); experiment: SPR
T1 chain: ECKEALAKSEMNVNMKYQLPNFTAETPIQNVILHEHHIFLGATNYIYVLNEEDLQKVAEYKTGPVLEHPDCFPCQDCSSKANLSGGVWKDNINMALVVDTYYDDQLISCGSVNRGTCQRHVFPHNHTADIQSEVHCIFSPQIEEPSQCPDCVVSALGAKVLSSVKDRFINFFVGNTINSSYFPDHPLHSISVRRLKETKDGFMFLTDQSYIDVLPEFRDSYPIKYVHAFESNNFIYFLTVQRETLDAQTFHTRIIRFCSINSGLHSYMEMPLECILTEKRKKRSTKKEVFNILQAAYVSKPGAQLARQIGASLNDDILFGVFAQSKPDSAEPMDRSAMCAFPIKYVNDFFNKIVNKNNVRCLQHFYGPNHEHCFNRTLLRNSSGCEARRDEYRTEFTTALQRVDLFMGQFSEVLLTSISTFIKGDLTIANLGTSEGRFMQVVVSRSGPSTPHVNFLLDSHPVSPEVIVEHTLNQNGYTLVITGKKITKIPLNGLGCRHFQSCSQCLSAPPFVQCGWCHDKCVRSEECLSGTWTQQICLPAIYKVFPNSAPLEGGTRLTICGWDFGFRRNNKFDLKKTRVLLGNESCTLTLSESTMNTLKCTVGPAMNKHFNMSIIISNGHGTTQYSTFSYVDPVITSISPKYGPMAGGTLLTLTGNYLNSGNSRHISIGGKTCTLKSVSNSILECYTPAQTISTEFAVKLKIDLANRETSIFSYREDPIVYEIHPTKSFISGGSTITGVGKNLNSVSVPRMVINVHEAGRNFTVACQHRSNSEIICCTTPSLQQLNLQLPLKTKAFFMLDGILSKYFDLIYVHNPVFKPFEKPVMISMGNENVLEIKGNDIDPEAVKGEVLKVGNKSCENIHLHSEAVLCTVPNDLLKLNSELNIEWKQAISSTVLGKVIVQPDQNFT

[2] = biological target: T2, purified recombinant extracellular domain of c‐Met (from Met1 to Thr932), c‐Met‐his (human, UniProt P08581 25-932); experiment: SPR; Biacore T200; c‐Met‐his immobilised on CM5 chip (10 mM sodium acetate pH 4.5); B7‐H3‐his as analyte in serial doubling concentrations up to 100 µM; 30 µL/min, 25°C; 1:1 model, global fit; settings: both partners purified
T2 construct: signal peptide in the construct; c-Met (hepatocyte growth factor receptor), extracellular domain, Met1 to Thr932; The limits and supplier are told for the SPR; source: bought: Sino Biological (Beijing, China)

B1: purified recombinant extracellular domain of B7‐H3 (from Gly27 to Thr461), B7‐H3‐his (domain or fragment, human, UniProt Q5ZPR3 27-461, looked up)
chain: GALEVQVPEDPVVALVGTDATLCCSFSPEPGFSLAQLNLIWQLTDTKQLVHSFAEGQDQGSAYANRTALFPDLLAQGNASLRLQRVRVADEGSFTCFVSIRDFGSAAVSLQVAAPYSKPSMTLEPNKDLRPGDTVTITCSSYQGYPEAEVFWQDGQGVPLTGNVTTSQMANEQGLFDVHSILRVVLGANGTYSCLVRNPVLQQDAHSSVTITPQRSPTGAVEVQVPEDPVVALVGTDATLRCSFSPEPGFSLAQLNLIWQLTDTKQLVHSFTEGRDQGSAYANRTALFPDLLAQGNASLRLQRVRVADEGSFTCFVSIRDFGSAAVSLQVAAPYSKPSMTLEPNKDLRPGDTVTITCSSYRGYPEAEVFWQDGQGVPLTGNVTTSQMANEQGLFDVHSVLRVVLGANGTYSCLVRNPVLQQDAHGSVTITGQPMT
notes: B7-H3 (CD276), human, extracellular domain, Gly27 to Thr461; The limits and supplier are told for the SPR; also called soluble recombinant B7‐H3; source: bought: BioIntron (Taizhou, China)
B1 gave a koff [1] of 0.000707 s⁻¹ and a Kd [2] of 1.66 µM.
